We go through one substance from PMC5669352.

For the assay, the target named is native mapacalcine (Cliona vastifica) (UniProt P86916). The assay is described as follows: MALDI-MS.

On to “native mapacalcine (from UniProt P86916 1-89) (natural protein)”, for which the stoichiometry N amounted to 2.
